The target in the assay is T1, AGT-LM, minor allele of the human alanine glyoxylate aminotransferase (Homo sapiens, AGXT minor allele (AGT-LM), UniProt P21549, strain).
T1 construct: alanine:glyoxylate aminotransferase, human, minor allele (AGT-LM)
Kind of assay: SPR; Biacore T200; His-tagged NB-AGT captured on a Ni-loaded NTA chip and covalently immobilised (EDC/NHS); AGT-LM injected at 0.74-60 nM in HBS-EP+ (10 mM HEPES, 150 mM NaCl, 3 mM EDTA, 0.05% Tween 20), single cycle kinetics, 120 s pulses, 70 uL/min; 25 °C; 1:1 interaction model. The note with it: both partners purified. Background: SPR reads the build-up and loss of mass on a sensor chip optically.

B1: NB-AGT-6 (VHH)
VHH: QVQLVESGGGSVQTGGSLRLACVASGFTSDHYSIGWFRQAPGKEREGVSCIGMHDGSTKYAESVKGRFTISSDNDKNTVYLQMNSLKPEDTAVYYCAAGPLVLLDSDTYQSWGEGTQVTVSS
notes: also in the AlphaFold 2 model files of Data S1; Selected by phage display from an immunised llama; Covalently immobilised on the NTA chip after capture by its His tag; also called NB-6; nanobody 6 raised against AGT-LM; source: E. coli BL21 (DE3), pET-24(+), purified (IMAC, SuperDex 75 SEC); not shown: His6, C-terminal, kept
Usually Kd stands for the concentration at which binding is half-saturated. Low values mean a tighter complex, high ones a looser complex. For the molecule B1, the Kd is approximately 0.005 nM.

B2: NB-AGT-1 (VHH)
VHH: QVQLVESGGGLVQAGDSLRLSCAASGLAFSTYGMGWFRQAPGKEREFVADINWSGSSTYVADSVKGRFTISRDNAKNTVYLQMNRLKPEDTAVYSCAAAPGGGLRAGPSRRYEYWGQGTQVTVSS
notes: also in the AlphaFold 2 model files of Data S1; Selected by phage display from an immunised llama; Covalently immobilised on the NTA chip after capture by its His tag; also called NB-1; nanobody 1 raised against AGT-LM; source: E. coli BL21 (DE3), pET-24(+), purified (IMAC, SuperDex 75 SEC); not shown: His6, C-terminal, kept
B2 gave a Kd of 3.8 nM.

Source of the values: article PMC11891404, “Thermodynamic versus kinetic basis for the high conformational stability of nanobodies for therapeutic applications” (Febs Letters, 2024).
